Values quoted from earlier work in paper PMC5904255.

Biological target: C1q (Homo sapiens) (UniProt P02745)
Sequence (P02745 23-245, chain 1 of 3): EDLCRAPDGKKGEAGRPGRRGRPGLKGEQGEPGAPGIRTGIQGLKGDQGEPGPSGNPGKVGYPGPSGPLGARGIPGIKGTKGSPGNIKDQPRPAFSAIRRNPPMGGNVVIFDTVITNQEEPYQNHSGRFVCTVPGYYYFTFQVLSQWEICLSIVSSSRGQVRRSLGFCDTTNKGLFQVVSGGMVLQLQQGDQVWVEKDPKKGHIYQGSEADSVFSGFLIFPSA
Sequence (P02746 28-253, chain 2 of 3, further chain): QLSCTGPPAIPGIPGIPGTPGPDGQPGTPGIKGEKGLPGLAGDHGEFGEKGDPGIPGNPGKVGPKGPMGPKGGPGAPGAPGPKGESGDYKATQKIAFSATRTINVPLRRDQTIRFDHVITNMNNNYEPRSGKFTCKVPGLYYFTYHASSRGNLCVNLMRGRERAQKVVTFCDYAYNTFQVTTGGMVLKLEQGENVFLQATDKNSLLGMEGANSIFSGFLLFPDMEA
Sequence (P02747 29-245, chain 3 of 3, further chain): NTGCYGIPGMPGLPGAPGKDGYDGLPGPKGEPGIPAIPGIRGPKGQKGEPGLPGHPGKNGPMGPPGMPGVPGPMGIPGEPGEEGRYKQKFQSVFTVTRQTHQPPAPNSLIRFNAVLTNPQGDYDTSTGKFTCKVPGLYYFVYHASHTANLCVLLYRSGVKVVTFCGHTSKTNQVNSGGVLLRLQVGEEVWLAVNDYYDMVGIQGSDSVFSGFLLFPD

Sequence of HMGB1 (P09429 whole entry): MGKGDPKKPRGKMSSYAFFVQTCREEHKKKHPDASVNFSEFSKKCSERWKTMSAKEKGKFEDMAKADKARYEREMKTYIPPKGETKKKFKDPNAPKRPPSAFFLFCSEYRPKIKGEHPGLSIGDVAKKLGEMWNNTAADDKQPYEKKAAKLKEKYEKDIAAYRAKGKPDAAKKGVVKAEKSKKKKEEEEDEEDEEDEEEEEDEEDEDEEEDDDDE

- Kd: 200 nM
Substance: HMGB1 (from UniProt P09429)
